The text below walks through data of patent US20170321240.

The test system of data set [1] is Left TALEN Slc35c1 (synthetic construct (Xanthomonas AvrBs3 scaffold)). The data set is described as follows: cell_activity. Conditions: TALEN pair with right TALEN, 19-bp spacer; T7E1 assay 72 h, CHO cells.
Data set [2] relates to Right TALEN Slc35c1 (synthetic construct (Xanthomonas AvrBs3 scaffold)). The data set is described as follows: cell_activity. Particulars: TALEN pair with left TALEN, 19-bp spacer; T7E1 assay 72 h, CHO cells.

Slc35c1 exon 1 left TALEN half-site: the activity (% gene modification) in data set [1] is 7.3.
As to Slc35c1 exon 1 right TALEN half-site, the activity (% gene modification) in data set [2] is 7.3.
